According to US20230348614A1 (VISTERRA, published 2023):

Legend:
[1] = molecular target: T1, R155A (Homo sapiens, UniProt P18827); experiment: alanine scan: flow cytometry on HEK-293T cells expressing the mutant clone, 4320 Fab 0.50 ug/mL, normalised to WT CD138; Range %WT Binding 6; Normalized 4320 vs. BB4 39.8
T1 construct: clone of the alanine scanning library on HEK-293T cells; m17 with one substitution; also called CD138 R155A
T1 sequence (CD138 (SDC1), full length, point mutant, looked up): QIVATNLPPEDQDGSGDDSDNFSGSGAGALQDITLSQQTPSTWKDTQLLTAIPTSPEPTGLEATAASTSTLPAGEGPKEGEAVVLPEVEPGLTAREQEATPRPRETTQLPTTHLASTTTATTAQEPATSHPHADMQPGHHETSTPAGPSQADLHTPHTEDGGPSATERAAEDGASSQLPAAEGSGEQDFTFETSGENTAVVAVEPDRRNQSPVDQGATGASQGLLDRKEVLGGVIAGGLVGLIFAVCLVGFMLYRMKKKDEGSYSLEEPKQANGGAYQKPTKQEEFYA
Description: (§1) Serial dilutions of each MAb were tested for immunoreactivity against cells expressing target protein (WT) or vector alone. Validation of target expression and optimization of detection and binding of anti-CD138 antibodies both by flow cytometry was completed in replicate (N=4). The optimal screening concentration for each MAb was determined based on the raw signal values and signal-to-background calculations specifically optimized for each test article. Optimized parameters included the use of 10% goat serum as blocking reagent. Primary antibody staining was for 60 minutes at 25° C. Wash buffer include phosphate buffered saline (divalent metal ion free), pH 7.4. […] Secondary antibodies were diluted 1:400 and incubated for 30 minutes at 25° C.
(§2) Library screens of very-high-affinity mAbs can fail to yield critical residues for antibody binding due to deficiencies of such an assay to detect and differentiate critical vs. less critical binding based on affinity and quantification of cell binding. One common approach in the literature is the use of monovalent antibody derived fragments such as Fab usually weakens binding sufficiently to allow identification of critical residues for binding. […] Binding of each test Ab to each mutant clone in the alanine scanning library was determined, in duplicate, and likewise evaluated by flow cytometry.

[2] = molecular target: T2, L107A (Homo sapiens, UniProt P18827); experiment: alanine scan: flow cytometry on HEK-293T cells expressing the mutant clone, 4320 Fab 0.50 ug/mL, normalised to WT CD138; Range %WT Binding 13; Normalized 4320 vs. BB4 16.8
T2 construct: clone of the alanine scanning library on HEK-293T cells; m17 with one substitution; also called CD138 L107A
T2 sequence (CD138 (SDC1), full length, point mutant, looked up): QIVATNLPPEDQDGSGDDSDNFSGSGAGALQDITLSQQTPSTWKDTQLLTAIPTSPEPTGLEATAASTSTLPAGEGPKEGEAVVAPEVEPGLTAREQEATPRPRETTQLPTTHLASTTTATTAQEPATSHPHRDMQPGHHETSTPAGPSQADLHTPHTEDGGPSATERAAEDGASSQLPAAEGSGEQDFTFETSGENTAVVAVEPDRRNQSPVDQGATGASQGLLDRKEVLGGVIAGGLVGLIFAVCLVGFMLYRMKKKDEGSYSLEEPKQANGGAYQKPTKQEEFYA
Description: as §1, §2

[3] = molecular target: T3, G241A (Homo sapiens, UniProt P18827); experiment: alanine scan: flow cytometry on HEK-293T cells expressing the mutant clone, 4320 Fab 0.50 ug/mL, normalised to WT CD138; Range %WT Binding 14; Normalized 4320 vs. BB4 53.5
T3 construct: clone of the alanine scanning library on HEK-293T cells; m17 with one substitution; also called CD138 G241A
T3 sequence (CD138 (SDC1), full length, point mutant, looked up): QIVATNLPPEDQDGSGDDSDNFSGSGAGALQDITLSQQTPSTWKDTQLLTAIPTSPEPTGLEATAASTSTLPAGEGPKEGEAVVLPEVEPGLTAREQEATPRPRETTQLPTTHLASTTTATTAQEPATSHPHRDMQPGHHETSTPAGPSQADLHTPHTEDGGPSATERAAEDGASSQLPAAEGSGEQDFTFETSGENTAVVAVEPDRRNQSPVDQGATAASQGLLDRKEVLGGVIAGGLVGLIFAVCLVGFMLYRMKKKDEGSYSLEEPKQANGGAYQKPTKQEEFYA
Description: as §1, §2

[4] = molecular target: T4, V110A (Homo sapiens, UniProt P18827); experiment: alanine scan: flow cytometry on HEK-293T cells expressing the mutant clone, 4320 Fab 0.50 ug/mL, normalised to WT CD138; Range %WT Binding 2; Normalized 4320 vs. BB4 28.3
T4 construct: clone of the alanine scanning library on HEK-293T cells; m17 with one substitution; also called CD138 V110A
T4 sequence (CD138 (SDC1), full length, point mutant, looked up): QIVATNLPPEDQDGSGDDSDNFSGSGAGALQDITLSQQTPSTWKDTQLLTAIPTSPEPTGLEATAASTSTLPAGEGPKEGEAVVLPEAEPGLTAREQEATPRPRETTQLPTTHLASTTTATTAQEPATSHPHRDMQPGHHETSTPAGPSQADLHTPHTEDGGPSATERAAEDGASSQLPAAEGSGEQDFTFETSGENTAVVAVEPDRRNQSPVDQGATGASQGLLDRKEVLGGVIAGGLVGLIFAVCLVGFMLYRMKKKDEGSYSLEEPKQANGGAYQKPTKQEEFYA
Description: as §1, §2

[5] = molecular target: T5, T188A (Homo sapiens, UniProt P18827); experiment: alanine scan: flow cytometry on HEK-293T cells expressing the mutant clone, 4320 Fab 0.50 ug/mL, normalised to WT CD138; Range %WT Binding 29; Normalized 4320 vs. BB4 59.8
T5 construct: clone of the alanine scanning library on HEK-293T cells; m17 with one substitution; also called CD138 T188A
T5 sequence (CD138 (SDC1), full length, point mutant, looked up): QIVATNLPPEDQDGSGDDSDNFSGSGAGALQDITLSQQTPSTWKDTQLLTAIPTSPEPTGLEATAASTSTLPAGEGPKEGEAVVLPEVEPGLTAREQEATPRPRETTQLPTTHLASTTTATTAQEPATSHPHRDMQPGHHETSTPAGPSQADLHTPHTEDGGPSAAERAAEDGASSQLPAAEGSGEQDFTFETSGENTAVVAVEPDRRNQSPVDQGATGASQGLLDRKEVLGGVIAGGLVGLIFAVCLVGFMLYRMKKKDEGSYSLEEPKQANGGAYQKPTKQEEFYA
Description: as §1, §2

- Mean %WT Binding [1]: 12.3 %WT
- Mean %WT Binding [2]: 18.2 %WT
- Mean %WT Binding [3]: 53.5 %WT
- Mean %WT Binding [4]: 21.9 %WT
- Mean %WT Binding [5]: 57.4 %WT
B1: Fab fragment of mAb 4320 (Fab, V domains shown)
VH: QVQLVQSGAEVKKPGASVKVSCKASGYSFSSYYMHWVRQAPGQGLEWMGTIHPSDSTTNYNQKFQGRVTMTVDTSTRTAYMELSSLRSEDTAVYYCANFVYWGQGTTVTVSS
VL: DIVMTQTPLSLSVTPGQPASISCKSSKSLLYKDGKTYLNWFLQKPGQSPQLLIYVVSTRASGVPDRFSGSGSGTDFTLKISRVEAEDVGVYYCQQLVEYPYTFGQGTKLEIKR
modifications: N-terminal Q1 observed as pyroglutamic acid (PCA) in the 138-2-5 complex
notes: In the crystal structures heavy chain residues 1-213 were traced; also called Fab4320
